# Laboratory results from paper PMC11209935 (Cell, 2023).
# B1: RPA4 (subunit of recombinant Alt-RPA) (natural protein, human, UniProt Q13156 1-261, looked up)
# chain: MSKSGFGSYGSISAADGASGGSDQLCERDATPAIKTQRPKVRIQDVVPCNVNQLLSSTVFDPVFKVRGIIVSQVSIVGVIRGAEKASNHICYKIDDMTAKPIEARQWFGREKVKQVTPLSVGVYVKVFGILKCPTGTKSLEVLKIHVLEDMNEFTVHILETVNAHMMLDKARRDTTVESVPVSPSEVNDAGDNDESHRNFIQDEVLRLIHECPHQEGKSIHELRAQLCDLSVKAIKEAIDYLTVEGHIYPTVDREHFKSAD
# Biological target: RPA1 (subunit of recombinant RPA and Alt-RPA) (human, UniProt P27694 1-616)
# Experiment: mass photometry
# RPA1 (subunit of recombinant RPA and Alt-RPA), sequence (P27694 whole entry): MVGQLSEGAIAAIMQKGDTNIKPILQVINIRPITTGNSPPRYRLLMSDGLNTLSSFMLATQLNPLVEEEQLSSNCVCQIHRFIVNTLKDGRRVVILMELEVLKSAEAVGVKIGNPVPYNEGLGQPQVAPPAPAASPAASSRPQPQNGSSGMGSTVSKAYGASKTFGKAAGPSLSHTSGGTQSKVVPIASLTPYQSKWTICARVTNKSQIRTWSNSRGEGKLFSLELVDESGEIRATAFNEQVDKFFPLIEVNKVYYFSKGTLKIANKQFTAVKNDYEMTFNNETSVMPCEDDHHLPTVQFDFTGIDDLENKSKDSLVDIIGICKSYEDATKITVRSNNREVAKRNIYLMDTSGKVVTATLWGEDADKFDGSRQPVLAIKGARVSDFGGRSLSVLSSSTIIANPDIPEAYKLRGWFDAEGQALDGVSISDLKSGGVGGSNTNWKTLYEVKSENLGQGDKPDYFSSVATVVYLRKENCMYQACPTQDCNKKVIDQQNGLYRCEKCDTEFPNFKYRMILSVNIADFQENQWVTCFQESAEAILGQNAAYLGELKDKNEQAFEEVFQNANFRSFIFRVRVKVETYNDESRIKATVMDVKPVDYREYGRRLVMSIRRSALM
binder,measurement,value
B1,binding result,binds
